Target: taxol-stabilised ATTO 647N-labelled microtubules (UniProt P02550 1-451, ATTO 647N label (which chain and residues not stated) | ATTO 647N label (which chain and residues not stated))
Experiment: TIRF microscopy, saturation binding curve; CENP-V-eGFP titrated onto surface-bound taxol-stabilised ATTO 647N-labelled microtubules; BRB80 (80 mM PIPES pH 6.8, 1 mM MgCl2, 1 mM EGTA) with 10 µM taxol, casein, DTT; 25 °C, 15 m equilibration; GFP intensity per micrometer of at least 100 microtubules per condition; Hill (cooperative) fit
Conditions: both partners purified

Kd: 53.2 ± 4.5 nM
B1: His6-CENP-V-eGFP (natural protein, UniProt Q9CXS4 1-252, looked up)
chain: MRRTRSAVATGPREQRRSGATGGLSGGESRAQRSRSRTRAGAGGGGGAVGPQPSAKPRPKPPPRAQEAAAEEPPPAVTPAASVSALDLGEQRERWETFQKRQRLSFEGAAKLLLDTFEYQGLVKHTGGCHCGAVRFEVWASADLHIFDCNCSICKKKQNRHFIVPASRFKLLKGAESITTYTFNTHKAQHTFCKRCGVQSFYTPRSNPGGFGIAPHCLDEGTVRSVVTEEFNGSDWERAMKEHKTIKNMSKE
notes: CENP-V (centromere protein V); also called CENP-V-GFP; recombinant CENP-V-eGFP

From PMC8586017, “CENP-V is required for proper chromosome segregation through interaction with spindle microtubules in mouse oocytes” (Nature Communications, 2021)
